# Test results reported in patent publication US7351555B2, “Mouse cytokine receptor Zcytor16” (ZymoGenetics, Inc., priority 2001, dated 2008).
# Legend:
# [1] = tested on: BaF3/CRF2-4/zcytor11 cells; experiment: Alamar Blue proliferation assay, IL-TIF activity; type: cell-based, murine; details: 3 days + Alamar Blue
# Description: BaF3/CRF2-4/zcytor11 cells were spun down and washed in the complete media, described in Example 7A above, but without mIL-3 (hereinafter referred to as “mIL-3 free media”). The cells were spun and washed 3 times to ensure the removal of the mIL-3. Cells were then counted in a hemacytometer. Cells were plated in a 96-well format at 5000 cells per well in a volume of 100 μl per well using the mIL-3 free media.
# Proliferation of the BaF3/CRF2-4/zcytor11 cells was assessed using IL-TIF-CEE protein diluted with mIL-3 free media to 50, 10, 2, 1, 0.5, 0.25, 0.13, 0.06 ng/ml concentrations. 100 μl of the diluted protein was added to the BaF3/CRF2-4/zcytor11 cells. The total assay volume is 200 μl. The assay plates were incubated at 37° C., 5% CO2 for 3 days at which time Alamar Blue (Accumed, Chicago, Ill.) was added at 20 μl/well. Plates were again incubated at 37° C., 5% CO2 for 24 hours. Alamar Blue gives a fluourometric readout based on number of live cells, and is thus a direct measurement of cell proliferation in comparison to a negative control. […] Plates were read on the Fmax™ plate reader (Molecular Devices Sunnyvale, Calif.) using the SoftMax™ Pro program, at wavelengths 544 (Excitation) and 590 (Emmission). […] The response, as measured, was approximately 15-fold over background at the high end of 50 ng/ml down to a 2-fold induction at the low end of 0.06 ng/ml.
# BaF3 wild type cells = experiment: Alamar Blue proliferation assay, IL-TIF activity; type: cell-based, murine
# BaF3/CRF2-4 cells = experiment: Alamar Blue proliferation assay, IL-TIF activity; type: cell-based, murine
# MES 13 cells = experiment: IL-TIF activation of SRE/STAT luciferase reporter mini-gene in MES 13 cells; type: cell-based, murine; details: 4 h
# Description: MES 13 cells (ATCC No. CRL-1927) were plated at 10,000 cells/well in 96-well tissue culture clusters (Costar) in DMEM growth medium (Life Technologies) supplemented with pyruvate and 10% serum (HyClone). Next day, the medium was switched to serum free DMEM medium by substituting 0.1% BSA (Fraction V; Sigma) for serum. This medium also contained the adenoviral construct KZ136 (below) that encodes a luciferase reporter mini-gene driven by SRE and STAT elements, at a 1000:1 multiplicity of infection (m.o.i.), i.e. 1000 adenoviral particles per cell. After allowing 24 h for the incorporation of the adenoviral construct in the cells, the media were changed and replaced with serum-free media. Human recombinant IL-TIF with or without a recombinant Zcytor16-Fc4 fusion was added at the indicated final concentration in the well (as described in Table 11, below). Dilutions of both the IL-TIF and Zcytor16-Fc4 were performed in serum-free medium. 0.1% BSA was added for a basal assay control. 4 h later, cells were lysed and luciferase activity, denoting activation of the reporter gene, was determined in the lysate using an Luciferase Assay System assay kit (Promega) and a Labsystems Luminoskan luminometer (Labsystems, Helsinki, Finland). Activity was expressed as luciferase units (LU) in the lysate.
# The construction of the adenoviral KZ136 vector was as follows. The original KZ136 vector is disclosed in Poulsen, L K et al. J. Biol. Chem. 273:6228-6232, 1998. The CMV promoter/enhancer and SV40 pA sequences were removed from pACCMV.pLpA (T. C. Becker et al., […] 43:161-189, 1994.) and replaced with a linker containing Asp718/KpnI and HindIII sites (oligos ZC13252 (SEQ ID NO:26) and ZC13453 (SEQ ID NO:27)). The STAT/SRE driven luciferase reporter cassette was exised from vector KZ136 (Poulsen, L K et al., supra.).) as a Asp718/KpnI-HindIII fragment and inserted into the adapted pAC vector. Recombinant KZ136 Adenovirus was produced by transfection with JM17 Adenovirus into 293 cells as described in T. C. Becker et al. supra.). Plaque purified virus was amplified and used to infect cultured cells at 5-50 pfu/cell 12-48 hours before assay. Luciferase reporter assays were performed as described in 96 well microplates as per Poulsen, L K et al., supra.).
# K-562 cells = experiment: K-562 cytotoxicity assay (MTT); type: cell-based, human; details: 72 h
# Description: The K-562 cell line (CRL-243, ATCC) has attained widespread use as a highly sensitive in vitro target for cytotoxicity assays. K-562 blasts are multipotential, hematopoietic malignant cells that spontaneously differentiate into recognizable progenitors of the erythrocytic, granulocytic and monocytic series (Lozzio, B B et al., Proc. Soc. Exp. Biol. Med. 166: 546-550, 1981).
# K562 cells were plated at 5,000 cells/well in 96-well tissue culture clusters (Costar) in DMEM phenol-free growth medium (Life Technologies) supplemented with pyruvate and 10% serum (HyClone). Next day, human recombinant IL-TIF (Example 19), BSA control or retinoic acid (known to be cytotoxic to K562 cells) were added. Seventy-two hours later, the vital stain MTT (Sigma, St Louis, Mo.), a widely used indicator of mitochondrial activity and cell growth, was added to the cells at a final concentration of 0.5 mg/ml. […] is converted to a purple formazan derivative by mitochondrial dehydrogenases. Four hours later, converted MMP was solubilized by adding an equal volume of acidic, isopropanol (0.04N HCl in absolute isopropanol) to the wells. Absorbance was measured at 570 nm, with background subtraction at 650 nm. In this experimental setting, absorbance reflects cell viability. Results shown in Table 12 are expressed as % cytotoxicity.
# [2] = tested on: BaF3/mZcytor16-MPL receptor cell line; experiment: Proliferation assay with BaF3/mZcytor16-MPL chimera cells; type: cell-based, murine; details: in the presence of the correct receptor complex
# Description: Using standard methods described herein, cells expressing a BaF3/mZcytor16-MPL chimera (wherein the extracellular domain of the mouse Zcytor16 (e.g., amino acids 24 to 230 of SEQ ID NO:38 or SEQ ID NO:48) is fused in frame to the intracellular signaling domain of the mpl receptor) are tested for proliferative response in the presence of IL-TIF. Such cells serve as a bioassay cell line to measure ligand binding of monomeric or homodimeric mouse Zcytor16 receptors. In addition, BaF3/mZcytor16-MPL chimera cells transfected with an additional heterodimeric cytokine receptor subunit can be assessed for proliferative response in the presence of IL-TIF. […] Transfection of the BaF3/MPL-mZcytor16 cell line with and additional MPL-class II cytokine receptor fusion that signals in the presence of the IL-TIF ligand, such as CRF2-4, determines which heterodimeric cytokine receptor subunits are required for mouse Zcytor16 receptor signaling. Use of MPL-receptor fusions for this purpose alleviates the requirement for the presence of an intracellular signaling domain for the mouse Zcytor16 receptor.
# Each independent receptor complex cell line is then assayed in the presence of IL-TIF and proliferation measured using routine methods (e.g., Alamar Blue assay). […]
molecule,measurement,setting,value
"IL-TIF: human IL-TIF polypeptide (SEQ ID NO:15) containing C-terminal GluGlu (EE) tag, purified from BHK cells (protein, listed as Homo sapiens, C-terminal EE tag) MAALQKSVSSFLMGTLATSCLLLLALLVQGGAAAPISSHCRLDKSNFQQPYITNRTFMLAKEASLADNNTDVRLIGEKLFHGVSMSERCYLMKQVLNFTLEEVLFPQSDRFQPYMQEVVPFLARLSNRLSTCHIEGDDLHIQRNVQKLKDTVKKLGESGEIKAIGELDLLFMSLRNACI",proliferative response (induction),[1]; IL-TIF-CEE 0.06 ng/ml,~2 fold
same,proliferative response over background,[1]; IL-TIF-CEE 50 ng/ml,approximately 15 fold
same,proliferation in response to IL-TIF-CEE,BaF3 wild type cells,did not proliferate
same,proliferation in response to IL-TIF-CEE,BaF3/CRF2-4 cells,did not proliferate
same,LU w/o zcytoR16,MES 13 cells; IL-TIF 0.03 ng/ml,105 ± 3 LU
same,LU w/o zcytoR16,MES 13 cells; IL-TIF 0.3 ng/ml,108 ± 4 LU
same,LU w/o zcytoR16,MES 13 cells; IL-TIF 3 ng/ml,134 ± 8 LU
same,LU w/o zcytoR16,MES 13 cells; IL-TIF 30 ng/ml,188 ± 16 LU
same,LU w/o zcytoR16,MES 13 cells; IL-TIF 300 ng/ml,258 ± 21 LU
same,% Cytotoxicity,K-562 cells; 100 ng/ml,16.2%
same,% Cytotoxicity,K-562 cells; 300 ng/ml,32%
same,increase of proliferation over background,[2],≥ 5 fold
